Patent US20110287023A1 (AstraZeneca / MedImmune, published 2011)

Legend:
[1] = biological target: T1, recombinant HMG1 produced in E. coli as a calmodulin binding protein (CBP) fusion (human); test: sandwich ELISA: antibody titrated and captured on anti-human IgG Fc, soluble recombinant HMG1 at 2 ug/ml, mouse anti-HMGB1 and anti-mouse IgG-HRP, OD 450
T1 construct: also called rHMG1; rHMGB1
Method: Sandwich ELISA (soluble HMG1): Immunoplates (EIA/RIA plate, High binding, Costar) were coated with anti human IgG Fc at 10 μg/ml in PBS (pH 7.2) and incubated at 4° C. overnight. The coating reagent was removed and the plates were rinsed briefly with PBS. The plates were then blocked with 4% milk for 1 hour at 37° C. and rinsed with PBS. The anti-HMG1 antibodies were diluted in 4% milk. For serial dilutions, the antibodies were used at a starting concentration of 20 μg/ml. The diluted anti-HMG1 antibodies were then added into plate and incubated for 1 hr at 37° C. The plate was then washed 10 times with PBST (PBS/0.1% tween 20) and incubate with antigen (HMGB1, 2 μg/ml; or 0.7 μg/ml for native HMGB1) in 4% milk and incubated at 37° C. for 1 h. The plate was then wash 10 times and incubated with mouse anti-HMGB1, 1 μg/ml in 4% milk at 37° C. for 1 h. The plate was washed 10 times and incubated with anti-mouse IgG-HRP at 1:1000 at 37° C. for 1 h. The plate was then washed and developed. HRP activity was detected with Sureblue HRP substrate (KPL). Plates were read at 450 nm using a Kinetic Microplate Reader (Molecular Devices).

[2] = biological target: T2, HMG1 B Box peptide amino acids 150-183; test: ELISA, HMG1 B Box peptide 150-183 coated at 10 ug/ml, antibody titrated, OD 450
T2 peptide: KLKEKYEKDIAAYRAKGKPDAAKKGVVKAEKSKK
Method: (§1) The plate was then blocked with 4% milk powder dissolved in PBS at 37° C. for 1 hour. The blocking solution was removed and replaced with human anti-HMG1 antibodies at various concentrations (see FIGS. 5A-B). […] HRP activity was detected with Sureblue HRP substrate (KPL). Plates were read at 450 nm using a Kinetic Microplate Reader (Molecular Devices). […] After washing and blocking with 1% BSA in PBS, the biotinylated peptides were individually added into the avidin coated wells and incubated for 30 min at room temperature. The serial diluted antibody G4, S16 and S6 at the initial concentration at 10 μg/ml were then transferred into the wells followed by adding mouse anti human IgG-HRP conjugate (Pierce). Detection was accomplished by adding 50 μl of tetramethylbenzidine (TMB) substrate (KPL) and the absorbance was read at 450 nm.

[3] = biological target: T3, HMG1 B Box peptide amino acids 91-169; test: ELISA, HMG1 B Box peptide 91-169 coated at 10 ug/ml, antibody titrated, OD 450
T3 construct: also called HMG1 peptide 91-169
T3 peptide: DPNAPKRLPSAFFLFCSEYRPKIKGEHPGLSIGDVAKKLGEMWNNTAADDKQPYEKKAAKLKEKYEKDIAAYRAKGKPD
Method: as §1

[4] = biological target: T4, HMG2 coated on ELISA plates (Bos taurus (Bovine), UniProt P40673 2-209); test: direct ELISA, HMGB2 coated at 5 ug/mL, OD 490
T4 construct: also called HMGB2; HMBG2
T4 sequence: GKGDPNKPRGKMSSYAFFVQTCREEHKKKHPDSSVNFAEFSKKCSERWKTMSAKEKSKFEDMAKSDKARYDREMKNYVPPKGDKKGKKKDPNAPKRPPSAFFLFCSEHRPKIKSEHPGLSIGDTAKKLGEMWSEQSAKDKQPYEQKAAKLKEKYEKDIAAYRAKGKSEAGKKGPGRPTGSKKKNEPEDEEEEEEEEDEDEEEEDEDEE
Method: (§2) Binding to HMG1 vs. HMG2: Ultra high-binding ELISA plates (ThermoLab systems, #3855) were coated with either 5 ug/mL of Calf thymus HMGB1 or HMBG2 diluted in 10 mM Phosphate buffered saline (PBS), pH 7.2 and incubate overnight at 4 degrees. The plates were washed twice with Ca and Mg free PBS and 100 microliters of anti-HMGB1 antibody diluted in 10 mM PBS, pH 7.2+1% bovine serum albumin (BSA) to a final concentration of 10 ug/mL was added to each well and the plates were incubated 1 hour at room temperature. The wells were washed three times with 100 μl of PBS, pH 7.2. HRP labeled goat-anti-human IgG Kappa-chain (KPL, #14-10-10) and goat-anti-human IgG Lambda-chain (KPL, #14-10-11) were diluted in 10 mM PBS+1% BSA 1:1000 and 100 μl were added to each well and incubated for 1 hour at room temperature. The wells were then washed three times with 100 μl of PBS, pH 7.2. OPD substrate (Pierce chemical company, #34006) was prepared following the manufacturers instructions and 100 μl of prepared substrate was added to each well and the plates incubated at room temperature in the dark for 20-30 minutes. The reaction was stopped with the addition of 100 μl of 2M H₂SO₄, and the plates read on a plate reader at a wavelength of 490 nm.

[5] = biological target: T1, recombinant HMG1 produced in E. coli as …; test: BIAcore 3000, mAb amine-coupled to CM5, HMG1 injected, steady-state model
Method: HMG1 Binding Affinity via BIAcore Analysis: All experiments were performed on a BIAcore 3000 instrument (BIAcore, Inc., Piscataway, N.J.). Briefly, each mAb was immobilized to a CM5 sensor chip using a standard amine coupling chemistry. Separately a reference (control) flow cell was also prepared. Two-fold, serial dilutions of HMG1 in instrument buffer were sequentially injected at a slow flow rate over the individual mAb and reference flow-cell surfaces. Following the binding and dissociation of HMG1, the mAbs surfaces were regenerated with a brief pulse of 1M NaCl-50 mM NaOH. At the end of each experiment, the binding curves were evaluated using a steady-state model available through the BIAevaluation software supplied by BIAcore, Inc. (Piscataway, N.J.).

[6] = biological target: T5, HMG1 purified from calf (bovine) thymus (bovine, UniProt P10103 2-215); test: direct ELISA, calf thymus HMGB1 coated at 5 ug/mL, antibody at 10 ug/mL, anti-human kappa/lambda-HRP, OD 490
T5 construct: also called Calf thymus HMGB1; thymus HMG1
T5 sequence (looked up): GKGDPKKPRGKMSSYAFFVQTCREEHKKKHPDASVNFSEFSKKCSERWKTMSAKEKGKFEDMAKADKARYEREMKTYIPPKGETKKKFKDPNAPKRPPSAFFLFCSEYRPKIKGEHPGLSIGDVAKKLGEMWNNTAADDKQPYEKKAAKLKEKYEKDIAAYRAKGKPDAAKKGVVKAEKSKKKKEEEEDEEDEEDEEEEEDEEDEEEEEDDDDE
Method: as §2

[7] = biological target: T1, recombinant HMG1 produced in E. coli as …; test: ELISA, coated RAGE-Fc, rHMG1 preincubated with antibody
Method: HMG1 binding to RAGE-Ig by ELISA: 50 μl/well of RAGE-Fc fusion protein at 5 μg/ml in PBS was added to each well of an ELISA plate and incubated overnight at 4° C. The plate was then blocked with 200 μl of 5% milk at 37° C. for 1 hr and washed 3× with PBS/Tween. 50 μl/well of diluted HMGB1 solution. For dose curves, HMGB1 concentrations started at 4 ug/ml in PBS. For antibody blocking the HMGB1 was preincubated in another plate with human anti-HMG1 antibodies or buffer, then transferred to the RAGE-coated plate. The plates were then incubated at room temperature for 2 hours and washed 3×. To detect any HMG1 bound to the immobilized RAGE-Fc a mixture of biotinylated mouse anti-HMG1 mAbs (10D4, 4H11, 3E10 and 5C12) each at 1 ug/ml, total Ab: 4 ug/ml, were added to each well and the plate was incubated for 1 hour at room temperature. The plate was then washed and Strepavidin-HPR was added to each well and incubated 15 min. The plate was then washed 3× and blotted dry. 100 μl of TMB developing agent was added and the plate read at 650 nm. Values were calculated as percent of inhibition with HMG1 alone equal to 0% inhibition. The data in FIG. 9 and summarized in Table 1 represent the average of two separate experiments.

[8] = biological target: T1, recombinant HMG1 produced in E. coli as …; test: cell-based or functional assay
[9] = biological target: T6, activated HMG1 from LPS stimulated THP-1 cells (human, UniProt P09429 1-215); test: cell-based or functional assay
T6 sequence (looked up): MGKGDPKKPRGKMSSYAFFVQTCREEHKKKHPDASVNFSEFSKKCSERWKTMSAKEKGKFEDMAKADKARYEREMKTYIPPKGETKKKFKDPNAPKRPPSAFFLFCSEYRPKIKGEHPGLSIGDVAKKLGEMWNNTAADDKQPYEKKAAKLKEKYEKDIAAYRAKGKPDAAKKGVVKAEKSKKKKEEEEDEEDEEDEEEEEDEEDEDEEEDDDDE

[10] = biological target: T7, recombinant rat HMGB-1 labelled with europium (rat, UniProt P63159 1-215, limits assumed, Eu label, molar ratio HMGB-1 to Eu 1:5); test: inhibition of binding of 2 nM Eu-labelled recombinant rat HMGB-1 to THP-1 cells
T7 construct: also called Europium-labeled HMGB-1
T7 sequence (looked up): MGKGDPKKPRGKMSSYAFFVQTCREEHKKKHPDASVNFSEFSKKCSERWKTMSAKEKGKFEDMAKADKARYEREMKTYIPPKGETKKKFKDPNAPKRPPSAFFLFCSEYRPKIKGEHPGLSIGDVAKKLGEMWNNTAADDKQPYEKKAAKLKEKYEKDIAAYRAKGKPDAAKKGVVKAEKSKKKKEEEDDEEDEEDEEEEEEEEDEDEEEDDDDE
Method: HMG1 binding to THP-1 Cells: Recombinant rat HMGB-1 was labeled using Eu-labelling Kit from PerkinElmer. Molar ratio of HMGB-1 to Eu is 1:5. THP-1 were cultured as the protocol from ATCC. Cells were harvested and suspended at concentration 1×10⁶/ml in assay buffer containing 1×DELFIA L*R binding buffer (PerkinElmer), 50% of DELFIA stabilizer (PerkinElmer) and 0.05% of sodium azide. 100 μl of cells (1×10⁵) was added into wells in 96 well cell culture plate. The plate was incubated with gentle shaking at 4° C. for one hour. 100 μl of assay buffer containing 2 nM of Europium-labeled HMGB-1 mixed with various concentrations (333, 166.5, 83.25, 41.6, 20.8, 10.4 and 5.2 nM) of human anti-HMGB1 antibodies E11 or G2 or soluble human RAGE-Fc, were added into each wells respectively. After one hour incubation with gentle shaking at 4° C., the cells were washed four times with 1×L*R wash buffer (PerkinElmer) by centrifuging at 1200 rpm×5 min. 200 μl of enhancement solution was added into each well to dissociate and enhance Eu fluorescence at 615 nm. The fluorescence was measured with Wallac Victor Fluorometer. Assay was performed in triplicate and human antibody R3-47 was used the negative isotype control.

B1: human anti-HMG1 antibody S2 (antibody, V domains shown)
VH: EVQLLESGGGLVQPGGSLRLSCAASGFTFSGYMMVWVRQAPGKGLEWVSRISPSGGQTGYADSVKGRFTISRDNSKNTLYLQMNSLRAEDTAVYYCAREEGGSYGAFDIWGQGTMVTVSS
VL: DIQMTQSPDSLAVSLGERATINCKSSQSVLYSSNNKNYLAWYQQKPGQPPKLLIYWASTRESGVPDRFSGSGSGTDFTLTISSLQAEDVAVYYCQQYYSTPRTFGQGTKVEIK
notes: full length IgG1 made from a human Fab phage clone; also called ATCC PTA-6142
In the case of B1, the “EC50 (read off the curve)” value [1] is reported as about 0.08 µg/mL, the binding result [2] is reported as “no binding (tested: 10 ug/ml (log 1.0))” and the binding result [3] is reported as “no binding (tested: 10 ug/ml (log 1.0))”. The binding result [4] was “no binding (tested: 10 ug/mL (single concentration))”, the Kd [5] was 36 nM and the binding result [6] was “binds”. For the same binder, the “percent inhibition of HMG1 binding to RAGE” value [7] was at least 35%, the “IC50 IL-1β” value [8] was 0.22 µg/mL and the “IC50 IL-6” value [8] was 0.163 nM. The “IC50 TNF-α” value [8] was 0.0642 µg/mL.

B2: human anti-HMG1 antibody S17 (antibody, IgG1, V domains shown)
VH: EVQLLESGGGLVQPGGSLRLSCAASGFTFSYYDMHWVRQAPGKGLEWVSRISPSGGYTWYADSVKGRFTISRDNSKNTLYLQMNSLRAEDTAVYYCTRGRYTSGWHEYFDPWGQGTLVTVSS
VL: DIQMTQSPSSLSASVGDRVTITCRASQSIGTYLNWYQQKPGTAPKVLIYAASSLQSGVPSRFSGSGSGTDFTLTISSLQPEDFSTYYCQQSYNTPRTFGQGTKLEIK
notes: full length IgG1 made from a human Fab phage clone
B2: no binding (tested: 10 ug/ml (log 1.0)) [2]; no binding (tested: 10 ug/ml (log 1.0)) [3]; no binding (tested: 10 ug/mL (single concentration)) [4]. The Kd [5] was 331 nM, the binding result [6] was “binds” and the “IC50 IL-1β” value [8] was 0.0809 µg/mL. For the same binder, the “IC50 IL-6” value [8] was 0.162 nM, the “IC50 NO” value [8] was 41.7 µg/mL and the “IC50 nm IL-6 Native HMGB” value [9] was 11.4 nM.

B3: human anti-HMG1 antibody G2 (antibody, IgG1, V domains shown)
VH: EVQLLESGGGLVQPGGSLRLSCAASGFTFSWYKMQWVRQAPGKGLEWVSGISPSGGSTAYADSVKGRFTISRDNSKNTLYLQMNSLRAEDTAVYYCAKMGLFNTGNSYVDYWGQGTLVTVSS
VL: AQSELTQPPSVSEAPGQRVTISCSGSTSNIGNNAVIWYQQLPGKAPKLLIYYDDLLPSGVSDRFSGSKSGTSGSLAISGLQSEDEADYYCASWDDNLNGPLFGGGTKLTVL
notes: as for B2
B3: no binding (tested: 10 ug/ml (log 1.0)) [2]; no binding (tested: 10 ug/ml (log 1.0)) [3]; no binding (tested: 10 ug/mL (single concentration)) [4]. For the same binder, the Kd [5] was 101 nM, the binding result [6] was “binds” and the IC50 [10] was 73.3 nM. For the same binder, the “IC50 IL-1β” value [8] was 5.03 µg/mL, the “IC50 IL-6” value [8] was 0.994 nM and the “IC50 IL-12” value [8] was 1.26 µg/mL. For the same binder, the “IC50 TNF-α” value [8] was 1.35 µg/mL.
